Data: US10925971B2, “Methods of treating PRLR positive breast cancer” (Regeneron Pharmaceuticals, Inc., priority 2016, dated 2021)

Tests used:
[1] = tested on: T47Dv11 tumors; assay: T47Dv11 breast tumor xenograft, single agent and combination with fulvestrant; format: in vivo, C.B.-17 SCID mice
Description: (§1) The T47Dv11 model was used to assess the activity of H1H6958N2-DM1 in a model with significant levels of endogenous PRLR. […] Initially, 10×10^6 parental T47D cells were implanted subcutaneously (SC) into the left flank of female C.B.-17 SCID mice (Taconic, Hudson N.Y.). Tumors were supplemented with a 90-day release 1.7 mg estrogen pellet (Innovative Research America). Where T47D tumors were observed, they were excised and cut into 3 mm fragments and subsequently implanted into the left flank of separate female C.B.-17 SCID mice. Subsequent passaging was performed until a large tumor was disaggregated into a single cell suspension. The cells (named T47Dv11) from this tumor were then cultured in vitro and expanded. […] For efficacy studies, mice were implanted with 7.5×10^6 T47Dv11 cells into the left flank of female C.B.-17 SCID mice supplemented with a 90-day release 0.72 mg/pellet estrogen pellet. For MCF7 and MCF7/PRLR tumor xenografts, 2×10^7 MCF7/PRLR cells were implanted SC into the left mammary fat pad of female NCr nude mice (7-8 weeks old) supplemented with 90-day release 0.72 mg/pellet estrogen pellets. Tumors were measured with calipers twice a week for the duration of each study. Tumor volume was calculated using the formula TV=(length×width^2)/2.
After T47Dv11 tumors reached an average volume of ˜150-200 mm^3 (14-16 days post implantation), mice were randomized into treatment groups (n=8-9 mice/group) and received a single dose or three once-weekly doses of H1H6958N2-DM1, control ADC, or vehicle control, administered systemically by intravenous tail-vein injection. […] Tumor size and body weight were measured in vivo twice per week throughout the duration of the study.
Next, the combination of H1H6958N2-DM1 with the SERD fulvestrant was tested in the T47Dv11 xenograft model. Here, the activity of either agent at partially effective doses was compared against the activity of the agents in combination. First, a dose titration study of weekly administration of fulvestrant was performed in order to establish its single agent activity (FIG. 4).
For the subcutaneous tumors, average tumor size as well as tumor growth inhibition relative to the Vehicle treated group were calculated for each group. Tumors were measured with calipers twice a week until the average size of the vehicle group reached 1200 mm^3. Tumor size was calculated using the formula (length×width^2)/2. For all studies, tumor growth inhibition was calculated according to the following formula: (1−((Tfinal−Tinitial)/(Cfinal−Cinitial)))*100, where T (treated group) and C (control group) represent the mean tumor mass on the day the vehicle group reached 1000 mm^3.

[2] = tested on: T47DvII tumors; assay: Phospho-histone-H3 (pHH3) IHC in treated tumors, mitotic arrest; format: in vivo, mice
Description: In order to validate the activity of DM1 on microtubule activity, the induction of mitotic arrest following treatment of T47DvII tumors with H1H6958N2-DM1 in vivo was assessed by phospho-histone-H3 (pHH3) IHC. Mice were implanted with T47DvII cells and tumors were grown for 15 days where mice were randomized based on tumor volume and dosed intravenously with either vehicle, H1H6958N2-DM1 at 5 or 15 mg/kg or Control ADC at 15 mg/kg (N=4-5). At 24, 48 or 72 hours post-treatment, mice were euthanized and tumors processed as FFPE samples for IHC analysis. Tumor sections were then stained with anti-phospho Histone H3 (pHH3) antibody (clone: Ser10, Cell Signaling Technology #9701) as a measure of mitotic cells. Images were scanned on an Aperio XT Scan scope at 40× (Leica Systems). PHH3 positive nuclear signals were imaged and quantified with the Halo CytoNuclear Count algorithm (Halo, Indica Labs). The percent of positive cells in each tumor was quantified for each group and an average calculated for each treatment condition.

[3] = tested on: MCF7/PRLR tumors; assay: MCF7/PRLR breast tumor xenograft, tumor volume (Example 13); format: in vivo, NCr nude mice
Description: After MCF7 or MCF7/PRLR tumors reached an average volume of ˜150-200 mm^3 (14-16 days post implantation), mice were randomized into treatment groups (n=8-9 mice/group) and received a single dose or three once-weekly doses of H1H6958N2-DM1, control ADC, or vehicle control, administered systemically by intravenous tail-vein injection. Tumor size and body weight were measured in vivo twice per week throughout the duration of the study.
as §1

Molecule	Final Tumor Volume (mean ± SD) ([1]; T47DvII tumors in SCID mice, Day 70, 2.5 mg/kg)	anti-tumor activity ([1]; combination study, individual treatment 2.5 mg/kg single dose)	tumor growth ([1]; single dose 2.5 or 5 mg/kg)	tumor growth ([1]; three doses of 5 or 15 mg/kg)	pHH3 immunoreactivity in tumors ([2]; 5 mg/kg intravenously, relative to vehicle)	pHH3 levels in tumors ([2]; 15 mg/kg, data not shown)	time of peak pHH3 levels post treatment ([2]; sampled at 24, 48 or 72 hours)	antitumor efficacy ([3]; single dose 10 and 15 mg/kg)	antitumor efficacy ([3]; single dose at 2.5-15 mg/kg)	antitumor efficacy ([3]; three once-weekly doses of 5 and 15 mg/kg)	tumor growth, controls ([1]; T47Dv11 model, dose not stated)	antitumor efficacy of controls ([3]; MCF7/PRLR model, dose not stated)
H1H6958N2-DM1: anti-PRLR antibody H1H6958N2 conjugated to the maytansinoid DM1 through an SMCC linker (conjugate) VH: QVQLVESGGGVVQPGRSLRLSCGASGFTFRNYGMQWVRQGPGKGLEWVTLISFDGNDKYYADSVKGRFTISRDNSKNTLFLQMNSLRTEDTAVYYCARGGDFDYWGQGTLVTVSS VL: DIQMTQSPSSLSASVGDRVTITCRASQDIRKDLGWYQQKPGKAPKRLIYAASSLHSGVPSRFSGSGSGTEFTLTISSLQPEDFATYYCLQHNSYPMYTFGQGTKLEIK	386 ± 249 mm^3	Significant anti-tumor activity	significantly inhibited tumor growth	tumor regression	significant increase relative to vehicle treated tumors	further increase in pHH3 levels	48 hours	eradication of the tumors	significant antitumor efficacy observed at all doses	tumor eradication		
H1H6958N2: anti-PRLR antibody, receptor blocking, human IgG1 Fc form of H2M6958N2 of Table 1; HCVR/LCVR SEQ ID NOs 290/298 (antibody, V domains shown) VH: QVQLVESGGGVVQPGRSLRLSCGASGFTFRNYGMQWVRQGPGKGLEWVTLISFDGNDKYYADSVKGRFTISRDNSKNTLFLQMNSLRTEDTAVYYCARGGDFDYWGQGTLVTVSS VL: DIQMTQSPSSLSASVGDRVTITCRASQDIRKDLGWYQQKPGKAPKRLIYAASSLHSGVPSRFSGSGSGTEFTLTISSLQPEDFATYYCLQHNSYPMYTFGQGTKLEIK											no effect on tumor growth	failed to induce any inhibition of tumor growth
